Where a chain is given by its changes, count along the chain named.
B1: C982 (antibody, V domains shown)
VH: EVQLVESGGGLVQPGGSLRLSCAASGFTFSNYDMHWVRQPTGGGLEWVSAIGTAGDTYYLASVKGRFTISRENAKNSLSLQMNSLRAGDTAVYYCVRGDTLVQGVIKAYYYYFMDVWGQGITVTVSS
VL: DIQMTQSPSSLSASVGDRVTITCRASQNISRYLNWYQQKPGKAPRLLIYAASTLQSGVPSRFSASGSGTDFTLTITNLQPEDFAVYYCQQTYVMPPYTLAQGTKLEIK
notes: IgG; V domains only
B2: C981 (antibody, V domains shown)
VH: EVQLVESGGGLVQPGGSLRLSCAASGFTFSNYDMHWVRQVTGNGLEWVAAIGTSGDTYYPDSVKGRFTISRENVKNSLFLQMNSLRAGDTAVYYCARGGSSSWLWYFDLWGRGTLV
VL: DIQMTQSPSSLSASVGDRVTITCRASQSISSHLNWYQQKPGKVPKLLIYAASTLQSGVPSRFSGSGSGTDFTLTISSLQPEDFATYYCQQSYSMPPVTFGQGTRLEIK
notes: IgG; V domains only
B3: C998 (antibody, V domains shown)
VH: QVQLVQSGAEVKKPGASVKVSCKTSGYTFISYYIHWVRQAPGQGLEWMGIINPDGDNTNYAQKFQGRVTMTRDTSTSTVYMELSSLRFEDTAVYYCARGGAIPALRTAFDIWGQGTMVTVSS
VL: DIQMTQSPSTLSASVGDRVTITCRASQSISNWLAWYQQKPGKAPKLLIYKASSLESGVPSRFSGSGSGTEFTLTISSLQPDDFATYYCQEYNSYYFGQGTKLEIK
notes: IgG; V domains only
B4: C997 (antibody, V domains shown)
VH: EVQLLESGGGLVQPGGSLRLSCAASGFTFSKDAMSWVRQAPGKGLEWVSTVTGSGTNTYYADSVKGRFTISRDNSNNTLYLQMNSLRAEDTAVYYCANHPLGAAEGYYYYYMDVWGKGTTVTVSS
VL: EIVLTQSPGTLSLSPGERGTLSCRASQRVPSSQLAWYQQKSGQAPRLLIYGASSRASGIPDRFSGSGSGTDFTLNISRLEPEDFAVYYCQQYGSLRALTFGGGTKVEIK
notes: IgG; V domains only
B5: C994 (antibody, V domains shown)
VH: QVQLQESGPGLVKPSGTLSLTCAVSGVSISNTNWWNWVRQPPGKGLEWIGEIYHTGSARYNPSLRSRVTISVDKSKNQFSLRLNSATAADTAIYYCARAQTPEFGELLYWGQGALVTVSS
VL: DIQMTQSPSSLSASVGDRVTITCRASQSITDHLNWYQQKPGKAPKLLIYAASSLQTGVPSRFSGSGSETDFTLTISTLQPEDFATYYCQQSYGPPTYSFGQGTKLEIK
notes: IgG; V domains only
B6: C983 (antibody, V domains shown)
VH: QVQLVESGGGVVRPGRSLRLSCAASGFTFSKYGMHWVRQAPGKGLECVASIAYDGSDDSYADSVKGRFIISRDNSKNTLYLQMNSLRAADTAVYYCAKVLGSYCSASSCHGQRPDYWGQGTLVTVSS
VL: DIQMTQSPSSLSAYVGDRVTITCQASQDISNHLNWYQQKPGKAPNLLIYDASNLETGVPSRFSGSGSGTDFSFTISSLQPEDIATYYCQQYDNVPPWTFGQGTKVEIK
notes: IgG; V domains only
B7: C995 (antibody, V domains shown)
VH: EVQLVESGGGLIQPGRSLRLSCTASGFSVGDYAMSWFRQAPGKGLEWVGFLRNQHYGGTAEYAASVKGRFSISTDASKNIVYLQMDSLKTEDTAVYYCARNDRYIVIVPAEMLYWGQGTLVTVSS
VL: EIVMTQSPATLSVSPGERATLSCRATESVYSNLAWYQQKPGQAPRLLMYDASTRAPGIPARFSGSGSGTEFTLTISSLQSEDFATYYCQQYSNWPPITFGQGTRLEIK
notes: IgG; V domains only
B8: C984 (antibody, V domains shown)
VH: QVQLVQSGTEVKKPGDSVQVSCKTSGYSFTGYYIHWVRQAPGQGLEWMGRINPNSGGTNYAQKFQGRVIMTRDTSITTAFMELTRLRYDDTAVYFCAREPIEGVIGGMIVNYYYMDVWGRGTTVTVSS
VL: QSALTQPASVSGSPGQSITISCTGTSSDVGGYYYVSWYQQHPGKAPKLMIYDVSSRPSGVSNRFSGSKSGNTASLTISGLQAEDEADYYCSSYTSSNTLVVFGGGTKLTVL
notes: IgG; V domains only
B9: C985 (antibody, V domains shown)
VH: QVQLVQSGAEVKKPGASVKVSCKASGYIFTGYYMHWVRQAPGQGLEWMGRINPNSGGSRYAEKFQGRVTMTRDTSIITAFMELRGLKSDDTAVYYCAREPIEAVPAGIIVNYYYMDVWGNGTTVTVSS
VL: B8 VL with Y33N, S54T, N62D, N71T, Y93F, S96A, N97F
notes: IgG; V domains only

Each binder was assayed against T1, SARS-COV-2 RBD (SARS-COV-2, UniProt P0DTC2 319-539) (assay: ELISA, RBD coated).
T1 construct: also called WT RBD

Row | Binder | EC50 [ng/mL]
1 | B1 | 2.56
2 | B2 | 2.12
3 | B3 | 2.51
4 | B4 | 3.49
5 | B5 | 2.09
6 | B6 | 2.11
7 | B7 | 3.79
8 | B8 | 2.76
9 | B9 | 3.67
